This note sets out measurements from doi:10.1101/2021.08.24.457465.

Where two headings read alike, the source gives them in different places.

Data set [1] has as its target T1, ToPif1 (wild type) (Thermus oshimai, UniProt K7RJ88 64-507).
T1 sequence: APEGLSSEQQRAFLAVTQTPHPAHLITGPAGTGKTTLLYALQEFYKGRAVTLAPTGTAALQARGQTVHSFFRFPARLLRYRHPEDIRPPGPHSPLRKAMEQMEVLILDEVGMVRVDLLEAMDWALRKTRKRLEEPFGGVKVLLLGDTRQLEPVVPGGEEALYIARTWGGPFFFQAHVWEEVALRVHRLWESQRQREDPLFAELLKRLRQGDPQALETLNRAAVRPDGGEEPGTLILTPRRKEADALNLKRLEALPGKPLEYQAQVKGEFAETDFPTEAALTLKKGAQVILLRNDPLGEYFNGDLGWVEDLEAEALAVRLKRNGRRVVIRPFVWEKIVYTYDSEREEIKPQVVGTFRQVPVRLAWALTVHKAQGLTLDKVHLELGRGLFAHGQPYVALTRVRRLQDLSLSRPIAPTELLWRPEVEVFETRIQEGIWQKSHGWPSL
Briefly: fluorescence anisotropy.

Data set [2] deals with T2, ToPif1 (wild type), crystal (Thermus oshimai, UniProt K7RJ88 64-507).
T2 sequence: T1 sequence
Briefly: X-ray crystallography.

Data set [3] concerns the target T1, ToPif1 (wild type). Briefly: fluorescence anisotropy. The source holds these as a separate data set.
In data set [4] the target is T1, ToPif1 (wild type). The experiment in a line: fluorescence anisotropy. This is another data set of the same source.
For data set [5], the target named is T1, ToPif1 (wild type). The experiment in a line: fluorescence anisotropy. The source holds these as a separate data set.

In turn, GGGTTAGGGTTAGGGTTAGGG (structured_DNA) [G4Tel] had a dissociation constant (Kd) with ToPif1 (wild type) [1] of about 29.6 nM.
In the case of TTTTTTGGGTGGGTGGGTGGGTTTTTTTT (structured_DNA) [G4T6/T8], the binding result in data set [2] is given as “binds”.
Consider AGGGTGGGTGGGTGGG (structured_DNA) [G4CEB], for which the dissociation constant Kd in the data set with ToPif1 (wild type) [3] was 30.9 ± 2.32 nM; in the data set with ToPif1 (wild type) [1], about 23.3 nM; with ToPif1 (wild type) [4], 30.3 ± 1.17 nM.
Turning to TTTTTTTTTTTT (ssDNA) [T12], the dissociation constant Kd with ToPif1 (wild type) [5] is 26.5 ± 0.71 nM; in the data set with ToPif1 (wild type) [1] it was about 29.1 nM; with ToPif1 (wild type) [4], 29.1 ± 0.53 nM.
